# The supplement of paper PMC10567573
# B1: PTPN9 (parent)
# chain: TQHLPRECLPENLGGYVKIDLATW
# Variants of: B1
# Assay: protein stability index of a GFP-peptide fusion (GPS, HEK-293T) (PSI 1-6); higher = more stable
# Conditions: c terminus: a fixed tail appended
# 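Also: lentivirally expressed fusions sorted by FACS into six bins by GFP to DsRed ratio, PSI derived from sequencing read proportions per bin multiplied by bin number.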
row,Variant,protein stability index
1,G15W,2.88
2,G15Y,2.16
3,Y16A,3.01
4,Y16C,2.48
5,Y16D,3.39
6,Y16E,3.37
7,Y16F,1.66
8,Y16G,2.87
9,Y16H,2.41
10,Y16I,2.29
11,Y16K,3.1
12,Y16L,1.98
13,Y16M,2.35
14,Y16N,3.17
15,Y16P,3.04
16,Y16Q,2.67
17,Y16R,2.44
18,Y16S,2.62
19,Y16T,3.02
20,Y16V,2.35
21,Y16W,1.5
22,V17A,2.57
23,V17C,1.89
24,V17D,3.24

row,Variant,protein stability index
1,V17E,2.85
2,V17F,1.77
3,V17G,2.57
4,V17H,2.29
5,V17I,2.24
6,V17K,3.12
7,V17L,1.48
8,V17M,2.01
9,V17N,2.36
10,V17P,2.2
11,V17Q,2.5
12,V17R,2
13,V17S,2.57
14,V17T,2.36
15,V17W,1.89
16,V17Y,1.95
17,K18A,2
18,K18C,1.49
19,K18D,3.51
20,K18E,1.93
21,K18F,3.63
22,K18G,1.93
23,K18H,1.79
24,K18I,2.12

row,Variant,protein stability index
1,K18L,2.52
2,K18M,1.73
3,K18N,2.18
4,K18P,2.19
5,K18Q,1.97
6,K18R,1.4
7,K18S,1.97
8,K18T,1.91
9,K18V,3.3
10,K18W,2.43
11,K18Y,1.91
12,I19A,2.86
13,I19C,2.3
14,I19D,3.07
15,I19E,3.58
16,I19F,1.79
17,I19G,3.3
18,I19H,2.5
19,I19K,3.08
20,I19L,2.06
21,I19M,2.79
22,I19N,2.67
23,I19P,3.11
24,I19Q,3.04

row,Variant,protein stability index
1,I19R,2.96
2,I19S,2.76
3,I19T,2.94
4,I19V,2.12
5,I19W,2.46
6,I19Y,2.46
7,D20A,2.07
8,D20C,1.94
9,D20E,1.67
10,D20F,2.58
11,D20G,1.78
12,D20H,2.68
13,D20I,2.01
14,D20K,1.94
15,D20L,1.66
16,D20M,1.69
17,D20N,1.78
18,D20P,1.69
19,D20Q,1.6
20,D20R,1.9
21,D20S,1.92
22,D20T,2.51
23,D20V,2.73
24,D20W,3.09

row,Variant,protein stability index
1,D20Y,2.68
2,L21A,2.09
3,L21C,2.06
4,L21D,3.46
5,L21E,3.27
6,L21F,1.76
7,L21G,2.85
8,L21H,2.17
9,L21I,1.65
10,L21K,3.35
11,L21M,1.88
12,L21N,2.63
13,L21P,2.78
14,L21Q,2.96
15,L21R,2.97
16,L21S,2.73
17,L21T,2.27
18,L21V,2.36
19,L21W,1.76
20,L21Y,1.97
21,A22C,1.92
22,A22D,3.18
23,A22E,2.35
24,A22F,2.43

row,Variant,protein stability index
1,A22G,1.64
2,A22H,1.78
3,A22I,1.87
4,A22K,2.08
5,A22L,3.29
6,A22M,1.65
7,A22N,2.35
8,A22P,2.49
9,A22Q,2.01
10,A22R,1.23
11,A22S,1.72
12,A22T,1.9
13,A22V,2.08
14,A22W,2.09
15,A22Y,2.21
16,T23A,1.83
17,T23C,1.38
18,T23D,2.37
19,T23E,2.73
20,T23F,2.17
21,T23G,1.9
22,T23H,2.09
23,T23I,2.02
24,T23K,2.38

row,Variant,protein stability index
1,T23L,1.76
2,T23M,1.83
3,T23N,2.06
4,T23P,1.99
5,T23Q,2.58
6,T23R,1.89
7,T23S,2.02
8,T23V,3.6
9,T23W,2.94
10,T23Y,1.71
11,W24A,2.84
12,W24C,2.28
13,W24D,3.88
14,W24E,4.07
15,W24F,1.8
16,W24G,3.38
17,W24H,2.66
18,W24I,1.94
19,W24K,3.59
20,W24L,2.12
21,W24M,2.05
22,W24N,3.51
23,W24P,2.86
